Test results: patent US20180344812A1 (Scripps Research, published 2018)
Where two headings read alike, the source gives them in different places. Bridges are numbered along the chain shown (N, C = ends). Where no end group is shown, it is not given here. [ ]: non-standard residue; d: D form. L1 = C4 bis(bromoacetamide) staple without lipid; L4 = octadecanedioic acid-PEG-ornithine staple; L3 = myristic acid-PEG-PEG-ornithine staple; L5 = C18 diacid-Lys-PEG2-ornithine staple; L2 = myristic acid-PEG-ornithine staple; L6 = made as L5 but on Rink amide resin

T1: human Glucose-dependent insulinotropic polypeptide receptor (GIPR) (human, UniProt P48546 22-466)
T1 sequence (looked up): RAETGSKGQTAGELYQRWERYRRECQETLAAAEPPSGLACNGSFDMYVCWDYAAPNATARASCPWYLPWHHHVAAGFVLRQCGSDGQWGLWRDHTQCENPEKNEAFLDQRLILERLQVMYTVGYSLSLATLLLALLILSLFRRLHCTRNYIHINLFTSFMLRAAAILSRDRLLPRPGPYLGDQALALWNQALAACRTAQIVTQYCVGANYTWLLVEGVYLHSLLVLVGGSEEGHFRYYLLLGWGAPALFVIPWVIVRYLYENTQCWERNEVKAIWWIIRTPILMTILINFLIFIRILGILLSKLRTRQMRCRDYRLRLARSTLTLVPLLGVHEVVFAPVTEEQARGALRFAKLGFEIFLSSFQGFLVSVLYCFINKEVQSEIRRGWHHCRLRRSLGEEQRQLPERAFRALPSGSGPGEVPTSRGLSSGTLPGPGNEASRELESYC

T2: human Glucagon-like peptide 2 receptor (GLP-2R) (human, UniProt O95838 1-553)
T2 sequence (looked up): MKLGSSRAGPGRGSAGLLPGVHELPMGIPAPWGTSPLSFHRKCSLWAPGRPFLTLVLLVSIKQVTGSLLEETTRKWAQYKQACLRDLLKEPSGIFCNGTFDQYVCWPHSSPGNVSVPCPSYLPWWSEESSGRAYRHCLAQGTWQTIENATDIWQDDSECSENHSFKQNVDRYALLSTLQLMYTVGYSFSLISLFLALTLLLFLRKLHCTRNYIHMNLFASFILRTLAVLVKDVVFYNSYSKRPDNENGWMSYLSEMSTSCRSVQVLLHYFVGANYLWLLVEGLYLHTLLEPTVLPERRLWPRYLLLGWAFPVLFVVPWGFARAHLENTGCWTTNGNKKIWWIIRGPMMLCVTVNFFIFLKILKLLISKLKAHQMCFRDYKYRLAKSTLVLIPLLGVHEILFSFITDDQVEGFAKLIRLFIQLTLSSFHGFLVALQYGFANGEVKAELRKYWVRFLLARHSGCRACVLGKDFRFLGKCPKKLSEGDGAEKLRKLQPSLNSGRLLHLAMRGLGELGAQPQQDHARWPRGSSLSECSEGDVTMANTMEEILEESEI


What was measured:
Test in all cases: cell-based or functional assay
[1] = target: T3, human glucagon-like peptide 1 receptor (GLP-1R) (human, UniProt P43220 24-463)
[2] = target: T1, human Glucose-dependent insulinotropic …
[3] = target: T3, human glucagon-like peptide 1 receptor …; remark: listed apart in the source
[4] = target: human glucagon receptor (GCGR) (human, UniProt P47871 26-477)
Chain of human glucagon receptor (GCGR) (P47871 26-477): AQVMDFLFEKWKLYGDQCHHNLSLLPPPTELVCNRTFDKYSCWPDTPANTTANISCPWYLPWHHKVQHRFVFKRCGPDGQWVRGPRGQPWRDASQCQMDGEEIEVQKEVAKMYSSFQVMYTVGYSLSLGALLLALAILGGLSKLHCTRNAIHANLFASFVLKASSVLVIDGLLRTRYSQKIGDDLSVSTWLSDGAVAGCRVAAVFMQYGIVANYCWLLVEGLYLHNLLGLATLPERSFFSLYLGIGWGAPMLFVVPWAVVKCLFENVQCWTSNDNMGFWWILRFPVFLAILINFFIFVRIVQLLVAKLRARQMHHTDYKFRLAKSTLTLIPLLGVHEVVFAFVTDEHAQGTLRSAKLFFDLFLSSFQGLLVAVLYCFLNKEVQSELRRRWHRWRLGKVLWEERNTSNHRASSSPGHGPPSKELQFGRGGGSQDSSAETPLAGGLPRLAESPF

[5] = target: T1, human Glucose-dependent insulinotropic …; remark: listed apart in the source
[6] = target: T2, human Glucagon-like peptide 2 receptor …

Binder	EC50, CRE-luciferase reporter in HEK293-GLP-2R-CRE cells [6] [nM]	further results
Y[dA]EGTFTSDYSIYLDKCAAKEFVCWLLAGGPSSGAPPPSK (linker 17-24 via L1) [mTA 40: GLP-1/GIP (A) and L1]	–	EC50, CRE-luciferase reporter in HEK293-GLP-1R-CRE cells [1]: 0.02 nM; EC50, CRE-luciferase reporter in HEK293-GIPR-CRE cells [2]: 0.02 nM
Y[dA]EGTFTSDYSIYLDKCAAKEFVCWLLAGGPSSGAPPPSK (linker 17-24 via L3) [mTA 41: GLP-1/GIP (A) and L3]	–	EC50, CRE-luciferase reporter in HEK293-GLP-1R-CRE cells [1]: 0.02 nM; EC50, CRE-luciferase reporter in HEK293-GIPR-CRE cells [2]: 0.06 nM
Y[dA]EGTFTSDYSIYLDKCAAKEFVCWLLAGGPSSGAPPPSK (linker 17-24 via L5) [mTA 43: GLP-1/GIP (A) and L5]	–	EC50, CRE-luciferase reporter in HEK293-GLP-1R-CRE cells [1]: 0.5 nM; EC50, CRE-luciferase reporter in HEK293-GIPR-CRE cells [2]: 1.1 nM
Y[dA]EGTFISDYSKYLDECAAKEFICWLMNTKRNRNNIA (linker 17-24 via L1) [mTA 44: GLP-1/GIP/Glucagon (A) and L1]	–	EC50, CRE-luciferase reporter in HEK293-GLP-1R-CRE cells [3]: 9.7 nM; EC50, CRE-luciferase reporter in HEK293-GCGR-CRE cells [4]: 1.6 nM; EC50, CRE-luciferase reporter in HEK293-GIPR-CRE cells [5]: 0.04 nM
HGDGSFSDEMNTILDNCAARDFICWLIQTKITD (linker 17-24 via L1) [mTA 46: GLP-2 (A) and L1]	0.045	–
HGDGSFSDEMNTILDNCAARDFICWLIQTKITD (linker 17-24 via L2) [mTA 47: GLP-2 (A) and L2]	0.041	–
HGDGSFSDEMNTILDNCAARDFICWLIQTKITD (linker 17-24 via L3) [mTA 48: GLP-2 (A) and L3]	0.045	–
HGDGSFSDEMNTILDNCAARDFICWLIQTKITD (linker 17-24 via L4) [mTA 49: GLP-2 (A) and L4]	0.241	–
HGDGSFSDEMNTILDNCAARDFICWLIQTKITD (linker 17-24 via L5) [mTA 50: GLP-2 (A) and L5]	6.4	–
HGDGSFSDEMNTILDNCAARDFICWLIQTKITD (linker 17-24 via L6) [mTA 51: GLP-2 (A) and L6]	0.7	–
HGDGSFSDEMNTILDCLAARDFICWLIQTKITD (linker 16-24 via L1) [mTA 52: GLP-2 (C) and L1]	5.6	–
HGDGSFSCEMNTILCALAARDFINWLIQTKITD (linker 8-15 via L1) [mTA 53: GLP-2 (D) and L1]	14.3	–
HGDGSFSDEMNTILDALAARCFINWLICTKITD (linker 21-28 via L1) [mTA 54: GLP-2 (E) and L1]	0.13	–
HGDGSFSDCMNTILDCLAARDFINWLIQTKITD (linker 9-16 via L1) [mTA 55: GLP-2 (F) and L1]	0.064	–
HGDGSFSDCMNTILDCLAARDFINWLIQTKITD (linker 9-16 via L5) [mTA 56: GLP-2 (F) and L5]	0.77	–
HGDGSFSDEMCTILDNLCARDFINWLIQTKITD (linker 11-18 via L1) [mTA 57: GLP-2 (G) and L1]	0.046	–
HGDGSFSDEMCTILDNLCARDFINWLIQTKITD (linker 11-18 via L5) [mTA 58: GLP-2 (G) and L5]	7.98	–
HGDGSFSDEMNTILDNCAARDFICWLIQTKITDPSSGAPPPS (linker 17-24 via L1) [mTA 59: GLP-2 (H) and L1]	0.064	–
HGDGSFSDEMNTILDNCAARDFICWLIQTKITDPSSGAPPPS (linker 17-24 via L2; also: staple L2 carries myristic acid-PEG-ornithine lipid) [mTA 60: GLP-2 (H) and L2]	0.068	–
HGDGSFSDEMNTILDNCAARDFICWLIQTKITDPSSGAPPPS (linker 17-24 via L3; also: staple L3 carries myristic acid-PEG-PEG-ornithine lipid) [mTA 61: GLP-2 (H) and L3]	0.068	–
HGDGSFSDEMNTILDNCAARDFICWLIQTKITDPSSGAPPPS (linker 17-24 via L5; also: staple L5 carries C18 diacid-Lys-PEG2-ornithine lipid) [mTA 63: GLP-2 (H) and L5]	2.66	–
HGDGSFSDEMNTILDNCAARDFICWLIQTKITDPSSGAPPPS (linker 17-24 via L6) [mTA 64: GLP-2 (H) and L6]	0.7	–
HGDGSFSDCMNTILDCLAARDFINWLIQTKITDPSSGAPPPS (linker 9-16 via L3; also: staple L3 carries myristic acid-PEG-PEG-ornithine lipid) [mTA 65: GLP-2 (I) and L3]	0.06	–
HGDGSFSDCMNTILDCLAARDFINWLIQTKITDPSSGAPPPS (linker 9-16 via L5; also: staple L5 carries C18 diacid-Lys-PEG2-ornithine lipid) [mTA 67: GLP-2 (I) and L5]	3.1	–
HGDGSFSDEMCTILDNLCARDFINWLIQTKITDPSSGAPPPS (linker 11-18 via L3; also: staple L3 carries myristic acid-PEG-PEG-ornithine lipid) [mTA 68: GLP-2 (J) and L3]	0.028	–
HGDGSFSDEMCTILDNLCARDFINWLIQTKITDPSSGAPPPS (linker 11-18 via L5; also: staple L5 carries C18 diacid-Lys-PEG2-ornithine lipid) [mTA 70: GLP-2 (J) and L5]	8.8	–
